Patent publication US20060275295A1 (published 2006)

Experiments:
[1] = target: T1, human THAP1 (THanatos-Associated Protein-1), full length (human, UniProt Q9NVV9 1-213); assay: yeast two-hybrid with THAP1 bait and GST pull-down with GST-THAP1
T1 construct: Used as Gal4-BD (pGBKT7) or Gal4-AD (pGADT7, pGAD424) fusion in yeast two-hybrid and as 35S-labelled in vitro translated protein (template pGBKT7-THAP1); also called hTHAP1; THAP1 wild type
T1 sequence: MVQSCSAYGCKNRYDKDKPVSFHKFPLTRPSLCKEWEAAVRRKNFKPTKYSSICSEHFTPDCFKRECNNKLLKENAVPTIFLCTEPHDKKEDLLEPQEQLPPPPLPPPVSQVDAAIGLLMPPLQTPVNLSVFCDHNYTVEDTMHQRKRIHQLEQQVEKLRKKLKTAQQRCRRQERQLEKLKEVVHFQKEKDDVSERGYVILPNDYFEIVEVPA

[2] = target: T1, human THAP1 (THanatos-Associated …); assay: yeast two-hybrid, AH109, His/Ade selection
From the text: 285) and CXCL10-2 (5′-[…]-3′) (SEQ ID NO. 286), No. 2403734 (IFNγ) with primers IFN-1 (5′-[…]-3′) (SEQ ID NO: 287) and IFN-2 (5′-[…]-3′) (SEQ ID NO: 288). The PCR products were digested with EcoRI and BamHI, and cloned between EcoRI and BamHI cloning sites of vector pGBKT7 (Clontech).

[3] = target: T2, GFP-THAP1 fusion protein (pEGFP.C2-THAP1) (human, UniProt Q5RCE4 1-213 (Pongo abelii entry)); assay: in vivo interaction assay: co-transfection in primary human endothelial cells, confocal microscopy
T2 construct: Expressed in transfected primary human endothelial cells (HUVEC); not shown: Enhanced Green Fluorescent Protein (EGFP) of pEGFP.C2 (Clontech), N-terminal
T2 sequence: T1 sequence
From the text: To provide further evidence for a physiological interaction between THAP1 and Par4 in vivo interactions between THAP1 and PAR4 were investigated. For that purpose, confocal immunofluorescence microscopy was used to analyze the subcellular localization of epitope-tagged Par4DD in primary human endothelial cells transiently cotransfected with pEF-mycPar4DD eukaryotic expression vector and GFP or GFP-THAP1 expression vectors (pEGFP.C2 and pEGFP.C2-THAP1, respectively). To generate pEF-mycPar4DD, mycPar4DD (amino acids 250-342) was amplified by PCR using pGBKT7-Par4DD as template, with primers myc.BD7 (5′-[…]-3′) (SEQ ID NO: 195) and Par4.9 (5′-[…]-3′) (SEQ ID NO: 196), and cloned into the XbaI and NotI sites of the pEF-BOS expression vector (Mizushima and Nagata, Nucleic Acids Research, 18:5322, 1990). Primary human endothelial cells from umbilical vein (HUVEC, PromoCell, Heidelberg, Germany) were grown in complete ECGM medium (PromoCell, Heidelberg, Germany), plated on coverslips and transiently transfected in RPMI medium using GeneJammer transfection reagent according to manufacturer instructions (Stratagene, La Jolla, Calif., USA). […] Cells were then washed three times 5 min at room temperature in PBS-BSA, and incubated for 1 hr with Cy3 (red fluorescence)-conjugated goat anti-mouse (1/1000, Amersham Pharmacia Biotech) secondary antibodies, diluted in PBS-BSA. […]

B1: SLC/CCL21ΔCOOH (SLC/CCL21 deletion mutant lacking the basic carboxy-terminal extension, amino acids 102-134) (ligand)
chain: SDGGAQDCCLKYSQRKIPAKVVRSYRKQEPSLGCSIPAILFLPRKRSQAELCADPKELWVQQLMQHLDKTPSPQKPAQG
notes: The BamHI-PstI fragment is said to encode SLC amino acids 24-102
B1: binds [1].

B2: human chemokine CXCL9, mature form (amino acids 23-125) (ligand)
chain: TPVVRKGRCSCISTNQGTIHLQSLKDLKQFAPSPSCEKIEIIATLKNGVQTCLNPDSADVKELIKKWEKQVSQKKKQKNGKKHQKKKVLKVRKSQRSRQKKTT
notes: Gal4 fusion in yeast or in vitro translated (pGBKT7 or pGADT7 template); tags not built in; also called MIG/CXCL9; MIG
B2: binds [2].

B3: myc-Par4DD (epitope-tagged Par4DD, amino acids 250-342, pEF-mycPar4DD) (other, not shown: small tags and cut ends)
chain: GFPRYNRDANVSGTLVSSSTLEKKIEDLEKEVVTERQENLRLVRLMQDKEEMIGKLKEEIDLLNRDLDDIEDENEQLKQENKTLLKVVGQLTR
notes: Expressed in transfected primary human endothelial cells (HUVEC)
B3: binds [3].
